From IntAct's records for PubMed 31515488

B1: Break repair meiotic recombinase recruitment factor 1 (Homo sapiens), Q0VDD7 (parent)
chain: MTKRKKLRTSGEGLCPPKPLKNPRLGDFYGDPQSSMLGCLHHPEEPEGKLGPVPSTQQHGEEPGKAVSSSPDEETGSPCRLLRQPEKEPAPLPPSQNSFGRFVPQFAKSRKTVTRKEEMKDEDRGSGAFSLETIAESSAQSPGCQLLVETLGVPLQEATELGDPTQADSARPEQSSQSPVQAVPGSGDSQPDDPPDRGTGLSASQRASQDHLSEQGADDSKPETDRVPGDGGQKEHLPSIDSEGEKPDRGAPQEGGAQRTAGAGLPGGPQEEGDGVPCTPASAPTSGPAPGLGPASWCLEPGSVAQGSPDPQQTPSRMGREGEGTHSSLGCSSLGMVVIADLSTDPTELEERALEVAGPDGQASAISPASPRRKAADGGHRRALPGCTSLTGETTGESGEAGQDGKPPGDVLVGPTASLALAPGSGESMMGAGDSGHASPDTGPCVNQKQEPGPAQEEAELGGQNLERDLEGFRVSPQASVVLEHREIADDPLQEPGAQQGIPDTTSELAGQRDHLPHSADQGTWADSLAVELDFLLDSQIQDALDASDFEAPPEQLFPSGNKPGPCWPGPSSHANGDPVAVAKAQPRTFVGIQASEASRMEDATNVVRGLIVELSNLNRLIMGTHRDLEAFKRLNYRKTKLGGKAPLPYPSKGPGNIPRGDPPWREL
partner: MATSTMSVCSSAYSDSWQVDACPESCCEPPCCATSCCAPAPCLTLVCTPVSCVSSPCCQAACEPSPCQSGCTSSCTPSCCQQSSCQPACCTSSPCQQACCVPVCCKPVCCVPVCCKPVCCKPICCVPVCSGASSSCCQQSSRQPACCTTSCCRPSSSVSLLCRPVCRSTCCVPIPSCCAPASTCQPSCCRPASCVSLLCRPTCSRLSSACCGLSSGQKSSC
B2: Isoform 1 of Zinc finger protein 18 (Homo sapiens), P17022-1 (parent)
chain: MPVDLGQALGLLPSLAKAEDSQFSESDAALQEELSSPETARQLFRQFRYQVMSGPHETLKQLRKLCFQWLQPEVHTKEQILEILMLEQFLTILPGEIQMWVRKQCPGSGEEAVTLVESLKGDPQRLWQWISIQVLGQDILSEKMESPSCQVGEVEPHLEVVPQELGLENSSSGPGELLSHIVKEESDTEAELALAASQPARLEERLIRDQDLGASLLPAAPQEQWRQLDSTQKEQYWDLMLETYGKMVSGAGISHPKSDLTNSIEFGEELAGIYLHVNEKIPRPTCIGDRQENDKENLNLENHRDQELLHASCQASGEVPSQASLRGFFTEDEPGCFGEGENLPEALQNIQDEGTGEQLSPQERISEKQLGQHLPNPHSGEMSTMWLEEKRETSQKGQPRAPMAQKLPTCRECGKTFYRNSQLIFHQRTHTGETYFQCTICKKAFLRSSDFVKHQRTHTGEKPCKCDYCGKGFSDFSGLRHHEKIHTGEKPYKCPICEKSFIQRSNFNRHQRVHTGEKPYKCSHCGKSFSWSSSLDKHQRSHLGKKPFQ
B3: Zinc finger protein with KRAB and SCAN domains 4 (Homo sapiens), Q969J2 (parent)
chain: MAREPRKNAALDAQSAEDQTGLLTVKVEKEEASALTAEVRAPCSPARGPERSRQRFRGFRYPEAAGPREALSRLRELCGQWLQPEMHSKEQILELLVLEQFLTILPGNLQSWVREQHPESGEEVVVLLEYLERQLDEPAPQVPVGDQGQELLCCKMALLTQTQGSQSSQCQPMKALFKHESLGSQPLHDRVLQVPGLAQGGCCREDAMVASRLTPGSQGLLKMEDVALTLTPGWTQLDSSQVNLYRDEKQENHSSLVSLGGEIQTKSRDLPPVKKLPEKEHGKICHLREDIAQIPTHAEAGEQEGRLQRKQKNAIGSRRHYCHECGKSFAQSSGLTKHRRIHTGEKPYECEDCGKTFIGSSALVIHQRVHTGEKPYECEECGKVFSHSSNLIKHQRTHTGEKPYECDDCGKTFSQSCSLLEHHKIHTGEKPYQCNMCGKAFRRNSHLLRHQRIHGDKNVQNPEHGESWESQGRTESQWENTEAPVSYKCNECERSFTRNRSLIEHQKIHTGEKPYQCDTCGKGFTRTSYLVQHQRSHVGKKTLSQ

Variants of: B1
Details: with kr103_human KRTAP10-3, P60369

| Variant | effect of a mutation on the interaction |
| --- | --- |
| N576S | with no effect |
| L155F | with no effect |
| G267R | with no effect |
| Q500R | with no effect |

Variants of: B2
Details: with ttc32_human TTC32, Q5I0X7
Sequence of ttc32_human TTC32, Q5I0X7 (Q5I0X7 whole entry): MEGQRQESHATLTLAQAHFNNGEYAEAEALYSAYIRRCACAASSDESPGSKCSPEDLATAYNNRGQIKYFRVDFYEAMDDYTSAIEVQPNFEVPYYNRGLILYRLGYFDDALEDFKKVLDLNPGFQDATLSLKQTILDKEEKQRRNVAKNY

| Variant | effect of a mutation on the interaction |
| --- | --- |
| MPVDLGQALGLLPSLAKAEDSQFSESDAALQEELSSPETARQLFRQFRYQVMSGPHETLKQLRKLCFQWLQPEVHTKEQILEILMLEQFLTILPGEIQMWVRKQCPGSGEEAVTLVESLKGDPQRLWQWISIQVLGQDILSEKMESPSCQVGEVEPHLEVVPQELGLENSSSGPGELLSHIVKEESDTEAELALAASQPARLEERLIRDQDLGASLLPAAPQEQWRQLDSTQKEQYWDLMLETYGKMVSGAGISHPKSDLTNSIEFGEELAGIYLHVNEKIPRPTCIGDRQENDKENLNLENHRDQELLHASCQASGEVPSQASLRGFFTEDEPGCFGEGENLPEALQNIQDEGTGEQLSPQERISEKQLGQHLPNPHSGEMSTMWFEEKRETSQKGQPRAPMAQKLPTCRECGKTFYRNSQLIFHQRTHTGETYFQCTICKKAFLRSSDFVKHQRTHTGEKPCKCDYCGKGFSDFSGLRHHEKIHTGEKPYKCPICEKSFIQRSNFNRHQRVHTGEKPYKCSHCGKSFSWSSSLDKHQRSHLGKKPFQ [L387F] | with no effect |

Variants of: B2
Details: with ccnc_human CCNC

| Variant | effect of a mutation on the interaction |
| --- | --- |
| MPVDLGQALGLLPSLAKAEDSQFSESDAALQEELSSPETARQLFRQFRYQVMSGPHETLKQLRKLCFQWLQPEVHTKEQILEILMLEQFLTILPGEIQMWVRKQCPGSGEEAVTLVESLKGDPQRLWQWISIQVLGQDILSEKMESPSCQVGEVEPHLEVVPQELGLENSSSGPGELLSHIVKEESDTEAELALAASQPARLEERLIRDQDLGASLLPAAPQEQWRQLDSTQKEQYWDLMLETYGKMVSGAGISHPKSDLTNSIEFGEELAGIYLHVNEKIPRPTCIGDRQENDKENLNLENHRDQELLHASCQASGEVPSQASLRGFFTEDEPGCFGEGENLPEALQNIQDEGTGEQLSPQERISEKQLGQHLPNPHSGEMSTMWFEEKRETSQKGQPRAPMAQKLPTCRECGKTFYRNSQLIFHQRTHTGETYFQCTICKKAFLRSSDFVKHQRTHTGEKPCKCDYCGKGFSDFSGLRHHEKIHTGEKPYKCPICEKSFIQRSNFNRHQRVHTGEKPYKCSHCGKSFSWSSSLDKHQRSHLGKKPFQ [L387F] | with no effect |

Variants of: B3
Details: with zsc32_human ZSCAN32, Q9NX65
Sequence of zsc32_human ZSCAN32, Q9NX65 (Q9NX65 whole entry): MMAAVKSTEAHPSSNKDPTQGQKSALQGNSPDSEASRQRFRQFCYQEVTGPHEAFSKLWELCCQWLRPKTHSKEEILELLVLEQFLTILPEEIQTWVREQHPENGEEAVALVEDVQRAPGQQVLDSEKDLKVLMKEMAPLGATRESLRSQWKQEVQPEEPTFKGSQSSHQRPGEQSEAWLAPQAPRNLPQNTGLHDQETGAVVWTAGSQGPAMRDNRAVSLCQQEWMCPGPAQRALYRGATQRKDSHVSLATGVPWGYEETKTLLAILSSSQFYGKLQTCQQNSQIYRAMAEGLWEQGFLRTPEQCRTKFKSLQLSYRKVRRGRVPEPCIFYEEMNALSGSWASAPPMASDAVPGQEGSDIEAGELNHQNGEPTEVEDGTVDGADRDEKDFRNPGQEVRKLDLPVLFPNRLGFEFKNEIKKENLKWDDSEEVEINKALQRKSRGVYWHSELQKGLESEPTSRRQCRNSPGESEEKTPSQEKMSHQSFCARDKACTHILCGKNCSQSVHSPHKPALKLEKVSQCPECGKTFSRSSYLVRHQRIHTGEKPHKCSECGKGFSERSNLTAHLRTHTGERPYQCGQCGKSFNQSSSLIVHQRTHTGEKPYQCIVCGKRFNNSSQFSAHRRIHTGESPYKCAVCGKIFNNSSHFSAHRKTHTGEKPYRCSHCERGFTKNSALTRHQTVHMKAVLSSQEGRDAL

| Variant | effect of a mutation on the interaction |
| --- | --- |
| MAREPRKNAALDAQSAEDQTGFLTVKVEKEEASALTAEVRAPCSPARGPERSRQRFRGFRYPEAAGPREALSRLRELCGQWLQPEMHSKEQILELLVLEQFLTILPGNLQSWVREQHPESGEEVVVLLEYLERQLDEPAPQVPVGDQGQELLCCKMALLTQTQGSQSSQCQPMKALFKHESLGSQPLHDRVLQVPGLAQGGCCREDAMVASRLTPGSQGLLKMEDVALTLTPGWTQLDSSQVNLYRDEKQENHSSLVSLGGEIQTKSRDLPPVKKLPEKEHGKICHLREDIAQIPTHAEAGEQEGRLQRKQKNAIGSRRHYCHECGKSFAQSSGLTKHRRIHTGEKPYECEDCGKTFIGSSALVIHQRVHTGEKPYECEECGKVFSHSSNLIKHQRTHTGEKPYECDDCGKTFSQSCSLLEHHKIHTGEKPYQCNMCGKAFRRNSHLLRHQRIHGDKNVQNPEHGESWESQGRTESQWENTEAPVSYKCNECERSFTRNRSLIEHQKIHTGEKPYQCDTCGKGFTRTSYLVQHQRSHVGKKTLSQ [L22F] | with no effect |

Variants of: B3
Details: with zksc7_human ZKSCAN7, Q9P0L1
Sequence of zksc7_human ZKSCAN7, Q9P0L1 (Q9P0L1 whole entry): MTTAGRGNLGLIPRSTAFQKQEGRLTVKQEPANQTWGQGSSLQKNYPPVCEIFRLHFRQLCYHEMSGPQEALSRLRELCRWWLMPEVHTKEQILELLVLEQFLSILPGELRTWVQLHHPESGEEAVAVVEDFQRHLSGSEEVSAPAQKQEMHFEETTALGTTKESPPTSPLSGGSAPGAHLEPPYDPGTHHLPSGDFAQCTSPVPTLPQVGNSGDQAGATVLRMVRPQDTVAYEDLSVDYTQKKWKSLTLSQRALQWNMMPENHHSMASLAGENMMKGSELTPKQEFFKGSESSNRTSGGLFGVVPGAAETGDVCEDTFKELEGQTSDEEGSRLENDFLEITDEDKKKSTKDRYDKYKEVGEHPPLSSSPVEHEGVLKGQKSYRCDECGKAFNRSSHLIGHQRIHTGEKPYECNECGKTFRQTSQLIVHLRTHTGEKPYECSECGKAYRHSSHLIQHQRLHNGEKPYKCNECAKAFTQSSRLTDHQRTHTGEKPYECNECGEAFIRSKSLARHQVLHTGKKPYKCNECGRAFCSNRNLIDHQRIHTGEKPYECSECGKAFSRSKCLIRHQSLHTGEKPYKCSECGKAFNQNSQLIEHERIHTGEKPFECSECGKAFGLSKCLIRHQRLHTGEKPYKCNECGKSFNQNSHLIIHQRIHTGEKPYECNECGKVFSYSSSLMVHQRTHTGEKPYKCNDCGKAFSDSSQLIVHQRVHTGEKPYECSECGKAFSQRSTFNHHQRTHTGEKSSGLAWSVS

| Variant | effect of a mutation on the interaction |
| --- | --- |
| MAREPRKNAALDAQSAEDQTGFLTVKVEKEEASALTAEVRAPCSPARGPERSRQRFRGFRYPEAAGPREALSRLRELCGQWLQPEMHSKEQILELLVLEQFLTILPGNLQSWVREQHPESGEEVVVLLEYLERQLDEPAPQVPVGDQGQELLCCKMALLTQTQGSQSSQCQPMKALFKHESLGSQPLHDRVLQVPGLAQGGCCREDAMVASRLTPGSQGLLKMEDVALTLTPGWTQLDSSQVNLYRDEKQENHSSLVSLGGEIQTKSRDLPPVKKLPEKEHGKICHLREDIAQIPTHAEAGEQEGRLQRKQKNAIGSRRHYCHECGKSFAQSSGLTKHRRIHTGEKPYECEDCGKTFIGSSALVIHQRVHTGEKPYECEECGKVFSHSSNLIKHQRTHTGEKPYECDDCGKTFSQSCSLLEHHKIHTGEKPYQCNMCGKAFRRNSHLLRHQRIHGDKNVQNPEHGESWESQGRTESQWENTEAPVSYKCNECERSFTRNRSLIEHQKIHTGEKPYQCDTCGKGFTRTSYLVQHQRSHVGKKTLSQ [L22F] | with no effect |

Variants of: B3
Details: with znf24_human ZNF24, P17028
Sequence of znf24_human ZNF24, P17028 (P17028 whole entry): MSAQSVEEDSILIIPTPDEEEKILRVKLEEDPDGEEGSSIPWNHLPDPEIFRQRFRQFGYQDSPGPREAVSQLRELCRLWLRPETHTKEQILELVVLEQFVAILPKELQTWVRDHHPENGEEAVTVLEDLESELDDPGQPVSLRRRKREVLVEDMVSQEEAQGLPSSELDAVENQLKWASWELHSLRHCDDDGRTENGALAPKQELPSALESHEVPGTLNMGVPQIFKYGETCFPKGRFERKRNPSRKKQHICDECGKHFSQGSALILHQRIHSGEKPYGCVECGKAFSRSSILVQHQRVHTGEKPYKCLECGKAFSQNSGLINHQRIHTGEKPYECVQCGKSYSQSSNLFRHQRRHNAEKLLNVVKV

| Variant | effect of a mutation on the interaction |
| --- | --- |
| MAREPRKNAALDAQSAEDQTGFLTVKVEKEEASALTAEVRAPCSPARGPERSRQRFRGFRYPEAAGPREALSRLRELCGQWLQPEMHSKEQILELLVLEQFLTILPGNLQSWVREQHPESGEEVVVLLEYLERQLDEPAPQVPVGDQGQELLCCKMALLTQTQGSQSSQCQPMKALFKHESLGSQPLHDRVLQVPGLAQGGCCREDAMVASRLTPGSQGLLKMEDVALTLTPGWTQLDSSQVNLYRDEKQENHSSLVSLGGEIQTKSRDLPPVKKLPEKEHGKICHLREDIAQIPTHAEAGEQEGRLQRKQKNAIGSRRHYCHECGKSFAQSSGLTKHRRIHTGEKPYECEDCGKTFIGSSALVIHQRVHTGEKPYECEECGKVFSHSSNLIKHQRTHTGEKPYECDDCGKTFSQSCSLLEHHKIHTGEKPYQCNMCGKAFRRNSHLLRHQRIHGDKNVQNPEHGESWESQGRTESQWENTEAPVSYKCNECERSFTRNRSLIEHQKIHTGEKPYQCDTCGKGFTRTSYLVQHQRSHVGKKTLSQ [L22F] | with no effect |

Variants of: B3
Details: with zn496_human ZNF496, Q96IT1
Sequence of zn496_human ZNF496, Q96IT1 (Q96IT1 whole entry): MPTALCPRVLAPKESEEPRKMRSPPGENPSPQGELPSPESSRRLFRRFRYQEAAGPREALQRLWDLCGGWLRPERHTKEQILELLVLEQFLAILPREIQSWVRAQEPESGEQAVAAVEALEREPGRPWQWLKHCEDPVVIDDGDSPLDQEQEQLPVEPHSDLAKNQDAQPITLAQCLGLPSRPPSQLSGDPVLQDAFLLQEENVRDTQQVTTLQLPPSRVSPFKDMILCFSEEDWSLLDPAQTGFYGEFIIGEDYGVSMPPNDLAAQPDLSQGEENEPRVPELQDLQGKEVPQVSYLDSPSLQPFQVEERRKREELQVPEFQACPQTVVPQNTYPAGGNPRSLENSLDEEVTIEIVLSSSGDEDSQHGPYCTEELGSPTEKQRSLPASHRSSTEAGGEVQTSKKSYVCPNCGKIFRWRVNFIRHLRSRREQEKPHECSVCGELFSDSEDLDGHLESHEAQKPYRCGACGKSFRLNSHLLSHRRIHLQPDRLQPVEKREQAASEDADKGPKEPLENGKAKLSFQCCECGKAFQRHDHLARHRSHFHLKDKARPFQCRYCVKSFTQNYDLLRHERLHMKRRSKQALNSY

| Variant | effect of a mutation on the interaction |
| --- | --- |
| MAREPRKNAALDAQSAEDQTGFLTVKVEKEEASALTAEVRAPCSPARGPERSRQRFRGFRYPEAAGPREALSRLRELCGQWLQPEMHSKEQILELLVLEQFLTILPGNLQSWVREQHPESGEEVVVLLEYLERQLDEPAPQVPVGDQGQELLCCKMALLTQTQGSQSSQCQPMKALFKHESLGSQPLHDRVLQVPGLAQGGCCREDAMVASRLTPGSQGLLKMEDVALTLTPGWTQLDSSQVNLYRDEKQENHSSLVSLGGEIQTKSRDLPPVKKLPEKEHGKICHLREDIAQIPTHAEAGEQEGRLQRKQKNAIGSRRHYCHECGKSFAQSSGLTKHRRIHTGEKPYECEDCGKTFIGSSALVIHQRVHTGEKPYECEECGKVFSHSSNLIKHQRTHTGEKPYECDDCGKTFSQSCSLLEHHKIHTGEKPYQCNMCGKAFRRNSHLLRHQRIHGDKNVQNPEHGESWESQGRTESQWENTEAPVSYKCNECERSFTRNRSLIEHQKIHTGEKPYQCDTCGKGFTRTSYLVQHQRSHVGKKTLSQ [L22F] | with no effect |
